# Test: yeast display, Sf9 membrane polyspecificity reagent, FACS + sequencing; frameworks hold sequencing errors
# In short: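 Synthetic nanobody libraries on Saccharomyces cerevisiae BJ5465 were galactose-induced for 36–48 hours, stained 1 hour at 4 °C with 10% biotinylated, detergent-solubilized Sf9 membrane reagent and enriched on streptavidin microbeads. FACS then separated cells into low and high (top ~1%) gates by anti-HA (expression) and streptavidin (reagent binding) fluorescence. Genes were colony-PCR amplified, MiSeq 2 × 250 sequenced and CDR-length filtered. A clone's polyreactivity label is that of its gate of origin.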
row,Sequence,polyreactivity (PSR sort gate)
1,QVQLVESGGGLVQAGGSLRLSCAASGRTFRYYDMGWYRQAPGKERELVAAITSRGGSTYYADSVKGRFTISRDNAKNTVYLQMNSLIPEDTAVYDCNAYPVQIFYLGNRQYNYWGHGTQVTVSS,high polyreactivity
2,QVQLVESGGGLVQAGGSLRLSCAASGRTFRYYDMGWYRQATGKERELVARISISGAGTYYADSVKGRFTISRDNAKNTVYLQINSLKPEDTAVYYCAADLFWWQKTNSGGDYWGQGTQVTVSS,low polyreactivity
3,QVQLVESGGGLVQAGGSLRLSCAASGRTFRYYGMGWYRQAPGKERELVAAISWSGGSTYYADSVKGRYTISRDNAKNSVYLQMNSLKPEDTAVYYCAADGQYYYGFDYWGQGTQVTVSS,high polyreactivity
4,QVQLVESGGGLVQAGGSLRLSCAASGRTFRYYTMGWYRQAPGKERELVAAITVGSRTNYADSEKGRFTISRDNAKNTVYFQMNSLKAEDTAVYYCARRSYYQYRYDYWGQGTQVTVSS,high polyreactivity
5,QVQLVESGGGLVQAGGSLRLSCAASGRTFRYYVMGWYRQAPGKERELVARISWSGARTYYADSVKGRFTISRDHAKNTVYLQMNSLKPEDTAVYYCAADNPYYYRRDYWGQGTQVTVSS,low polyreactivity
6,QVQLVESGGGLVQAGGSLRLSCAASGRTFSAYAMGWSRQAPGKERELVAAISRSGGRTYYADSVKGRFTISRDNAKNTVYLQMNSLKPEDTAVYYCAAGSNIWGQGTQVTVSS,high polyreactivity
7,QVQLVESGGGLVQAGGSLRLSCAASGRTFSAYAMGWYRQAPGKERELVARITSVDSTNYADSVKGRFTISRDNAKNTVYLQMNSLKPDDTAVYYCNATFVFPFVDYDDYWGQGTQVTVSS,low polyreactivity
8,QVQLVESGGGLVQAGGSLRLSCAASGRTFSENAMGWYRQARGKERELVAAISGSGGRTYYADSVKGRFTISRDNAKNTVYLQMNSLKPEDTAVYYCAKVTRYGSTYDYWGQGTQVTVSS,high polyreactivity
9,QVQLVESGGGLVQAGGSLRLSCAASGRTFSEYAMGWYRQAPGKERELVAAITENGGSTYYADSVKGRFTISRDNAKNTVYLQMNSLKPEDTAVYYCAAETWADWYSEFYWGQGTQVTVSS,high polyreactivity
10,QVQLVESGGGLVQAGGSLRLSCAASGRTFSFYAMGLYRQAPGKERELVAAIRSDGGTTYYADSVKGRFTISRVNGKNTVYLQMNSLKPEDTAVYYCNTQSFYFVSFSSSRYLRYYWGQGTQVTVSS,low polyreactivity
11,QVQLVESGGGLVQAGGSLRLSCAASGRTFSGNAMGWYRQAPGKERELVATITRRGGSTYYADSVKGRFTISRDNAKNTVYLQMNSLKPEDNAVYYCAARRVVNGGQGYESWGQGTQVTVSS,high polyreactivity
12,QVQLVESGGGLVQAGGSLRLSCAASGRTFSGYAMGWYRQAPGKERELVAAISSGGGSTYYADSVKGRFTISRDIAKNTVYLQMNSLKPEDTAVYYCAADGYPGDYDYWGQGTQVTVSS,low polyreactivity
13,QVQLVESGGGLVQAGGSLRLSCAASGRTFSGYAMGWYRQAPGKERELVAVITYSGGSTYYADSVKGRFTISRDNAKNTVYLQMNSLKPEDTAVYYCNADYVIFYQLVDYDYWGQGTQVTVSS,low polyreactivity
14,QVQLVESGGGLVQAGGSLRLSCAASGRTFSINAMGWYRQAPGKEREMVADITKRGSTYYADSVKGRFTISRDNAKNTVYLQMNSLKREDTAVYYCNARYRGRVYDRFGYWGQGTQVTVSS,high polyreactivity
15,QVQLVESGGGLVQAGGSLRLSCAASGRTFSIYAMGWYRQAPGKERELVASITGRGGSTYYADSVKGRFTISRDNAKNTVYLQMNSLKPEDTAVYYCAADSYKPDGYRLRNDYWGQGTQVTVSS,high polyreactivity
16,QVQLVESGGGLVQAGGSLRLSCAASGRTFSIYAMGWYRQAPGKERELVASITNSDGSTYYADSVKGRFTISRDNAKNTVYLQMNSLKPEDTAVYYCNVDSGQSWSLWTYVQYDDYWGQGTQVTVSS,low polyreactivity
17,QVQLVESGGGLVQAGGSLRLSCAASGRTFSKNTMGWYRKAPGKERELVASITRRGGSTYYADSVKGRFTISRDNAKNTVYLQMKSLKPEDTAVYYCAVRWRDYRGSYRGFEYWGQGTQVTVSS,high polyreactivity
18,QVQLVESGGGLVQAGGSLRLSCAASGRTFSKYAMGWYRQAPGKERELVASITWSGGTTNYADSVKGRFTISRDNAKNTVYLQMNSLKPEDTAVYYCNADGYLAERFFIRLDEYRDYDYWGQGTQVTVSS,low polyreactivity
19,QVQLVESGGGLVQAGGSLRLSCAASGRTFSKYTMGRYRQAHGKEMEFGAAISYSGGSTYYADSVKGRFTISRDYAKKTVYLQMNSLKPEDTAVYYCAARASTYKYYYWGQGTQVTVSS,high polyreactivity
20,QVQLVESGGGLVQAGGSLRLSCAASGRTFSNYAMGWYRQAPGKERELVAAISQRGGSTYYADSVKGRFTISRDNAKITVYLQMNSLKPEDTAVYYCNALFRLRAYADMDYWGQGTQVTVSS,high polyreactivity
21,QVQLVESGGGLVQAGGSLRLSCAASGRTFSPNSMVWYRPAPGKERELVAAITRSDGRTYYADSVKGRFTISRDNAKNTVYLQMNSLKPEDTAVYYCAVDGYYPPAWYEYDYWGQGTQVTVSS,high polyreactivity
22,QVQLVESGGGLVQAGGSLRLSCAASGRTFSRNAMGRYRQAPGKERELVATITSDGSTNYADSVKGRFTISRDNAKNTVYLQMNSLKPEDTAVYYCAAGEQSSIIGAHDYWGQGTQVTVSS,low polyreactivity

row,Sequence,polyreactivity (PSR sort gate)
1,QVQLVESGGGLVQAGGSLRLSCAASGRTFSRNAMGWYRQAPGKERELVATISSSGVRTYYADSVKGRFTISRDNAKNTVYVQMNSLKPEDTGVYYCAAALRYFSAASGYDYWGQGTQVTVTS,low polyreactivity
2,QVQLVESGGGLVQAGGSLRLSCAASGRTFSRYAMGWYRQAPGKERELVAAITSGGSTYYADSVKGRFTISRDNAKNTVYLQMNSLKPEDTAVYYCAAVWRYGYSDGGYWGLGTQVTVSS,high polyreactivity
3,QVQLVESGGGLVQAGGSLRLSCAASGRTFSRYAMGWYRQAPGKERELVATINSRAGITNYADSVKGRFTISRDNAKNTVYLQMNSLKPEDTAVYYCAAKGVIISYDTLRYDYWGQATQVTVSS,high polyreactivity
4,QVQLVESGGGLVQAGGSLRLSCAASGRTFSSNAMGWYRQAPGKERELVASISFRGGRTYYADSVKGRFTISRDNAKNTVYLQMNSLKPEDTAVYYCVSGTKRTGYGYWGQGTQVTVSS,high polyreactivity
5,QVQLVESGGGLVQAGGSLRLSCAASGRTFSSNAMGWYRQAPGKERELVATITYSGGSTYYADSVKGRFTISRDNAKNTVYLQMNSLKPEDTAVYYCAVRVSTYITKYYYWGQGTQVTVSS,low polyreactivity
6,QVQLVESGGGLVQAGGSLRLSCAASGRTFSSNAMGWYRQAPGKERELVAVITRRGGSTYYADSVKGRFTISRDNAKNTVYLQMNSLKPEDTAVYYCATDAPPQRSGRRSAGQKYYYLGQGTQVTVSS,high polyreactivity
7,QVQLVESGGGLVQAGGSLRLSCAASGRTFSSNTMGWYRQAPGKERELVAAITKSGANTYYADSVKGRFTISRDNAKNTVYLQMNSLKPEDTAVYYCAAPGKVQRYYYWGQGTQVTVSS,high polyreactivity
8,QVQLVESGGGLVQAGGSLRLSCAASGRTFSSTAMGWYRPAPGKERELVATITYSGGSTYYADSVKGRFTISRDNAKNTVYLQMISLKPEDCAVYYGAVRVSTYMTKYYYWGQGTQVTVSS,low polyreactivity
9,QVQLVESGGGLVQAGGSLRLSCAASGRTFSSYTMGWYIQAPGKEMELVAAISWRGGSTYYADSVKGRFTISSDNAKNTVYLQMNSLKPEDTAVYYCAARSYLTPDYYYWGQGTQVNVSS,high polyreactivity
10,QVQLVESGGGLVQAGGSLRLSCAASGRTFSSYVMGWYRQAPGKERELVASISRRGGSTYYADSVKGRFTISRDNAKNTVYLQMNSLKPEDTAVYYCNADLRGFGRGTDQYIFDYWGQGTQVTVSS,high polyreactivity
11,QVQLVESGGGLVQAGGSLRLSCAASGRTFSTYAMGWYRQAPGKERELVAAITSSGTSTYYADSVKGRFTISRDNAKNTVYLQMNSLKPEDTAVYYCAAVTKRYLAYDYWGQGTQVTVSS,high polyreactivity
12,QVQLVESGGGLVQAGGSLRLSCAASGRTFSTYAMGWYRQAPGKERELVAAKSSGGGRTYYADSVKGRFTISRDNAKNTVYLQMNSLKPEDTAVYYCAADRYFRSRRSYEYWGQGTQVTVSS,low polyreactivity
13,QVQLVESGGGLVQAGGSLRLSCAASGRTFSVNAMGWYRQAPGKERELVAAISWDGGSTYYADSVKGRFTISRDNAKNTVYLQMNSLKPEDTAVYYCIKDLYYAYDYWGQGTQVNVSS,low polyreactivity
14,QVQLVESGGGLVQAGGSLRLSCAASGRTFSVNAMGWYRQAPGKERELVAAITSGASTNYADSVKGRFTMSRDNAKNTVYLQMNSLKPEDTAVYYCAADATYGHVPAEYDYWGQGTQVTVSS,low polyreactivity
15,QVQLVESGGGLVQAGGSLRLSCAASGRTFSVYAMGWYRQAPGKEREFVATISYSGVRTSYADSVKGRFTISRDNAKNTGYLQMNSLKPEDTAVYYCNARTYYPVYYRDGGYWGQGTQVTVSS,high polyreactivity
16,QVQLVESGGGLVQAGGSLRLSCAASGRTFSVYAMGWYRQAPGKERELVAVISYRDGTTYYADSVKGRFTISRDNAKNTVYLQMNSLKPEDTAVYYCAADFFSDFDWGQGTQVTVSS,low polyreactivity
17,QVQLVESGGGLVQAGGSLRLSCAASGRTFSVYAMGWYRQATGKEREFVAAISFSGGRTYYADSVKGRFTISRDNAKNTVYLQINSLKPEDTAVYYCAKRGSYYNPMGYWGQGTQVTVSS,high polyreactivity
18,QVQLVESGGGLVQAGGSLRLSCAASGRTFSVYTMGWYRQAPGKERELVAAISSTGRTNYADSVKGRFTISRDNAKNTVYLQMNSLKPEDTAVYYCNAGVRNSYTRQALVTAYYLYYYWGQGTQVTVSS,high polyreactivity
19,QVQLVESGGGLVQAGGSLRLSCAASGRTFSYNAMGWYRPAPGKERELVAVITYSGGSTYYADSVKGRFTISRDNAKNTVYLQMNSLKPEDTAVYYCNADGYRPYQNGYDYWGQGTQVTVSS,high polyreactivity
20,QVQLVESGGGLVQAGGSLRLSCAASGRTFSYNAMGWYRQAPGKERELVAAIDWSGGRTYYADSVKGRFTISRDNAKNTVYLQMNSLKPEDTAVYYCNKAVRSSYSAWQYGMYYWGQGTQVTVSS,high polyreactivity
21,QVQLVESGGGLVQAGGSLRLSCAASGRTFSYNAMGWYRQAPGKERELVARISSGGSTNYADSVKGRFTISRDNAKNTVYLQMNSLKPEDTAVYYCNAGSYVWEEDYCGQGTQVTVSS,high polyreactivity

# Reference: the nanobody polyreactivity screen of Harvey et al. (2022)
